# Values of other authors, collected in patent publication US10753947B2, “Methods for screening voltage-gated proteins” (D.E. Shaw Research, LLC, priority 2012, dated 2020).
# Tests used:
# Shaker = Shaker (Drosophila melanogaster, UniProt P08510, DUP563-563/L584V/Q583H); conditions: Table 5; read-out: IC50, channel Shaker; cited from earlier work
# Kv2.2 = biological target: T1, Kv2.2 (Homo sapiens, UniProt Q92953); conditions: Table 5; read-out: IC50, channel Kv2.2; cited from earlier work
# T1 sequence (Q92953 1-911): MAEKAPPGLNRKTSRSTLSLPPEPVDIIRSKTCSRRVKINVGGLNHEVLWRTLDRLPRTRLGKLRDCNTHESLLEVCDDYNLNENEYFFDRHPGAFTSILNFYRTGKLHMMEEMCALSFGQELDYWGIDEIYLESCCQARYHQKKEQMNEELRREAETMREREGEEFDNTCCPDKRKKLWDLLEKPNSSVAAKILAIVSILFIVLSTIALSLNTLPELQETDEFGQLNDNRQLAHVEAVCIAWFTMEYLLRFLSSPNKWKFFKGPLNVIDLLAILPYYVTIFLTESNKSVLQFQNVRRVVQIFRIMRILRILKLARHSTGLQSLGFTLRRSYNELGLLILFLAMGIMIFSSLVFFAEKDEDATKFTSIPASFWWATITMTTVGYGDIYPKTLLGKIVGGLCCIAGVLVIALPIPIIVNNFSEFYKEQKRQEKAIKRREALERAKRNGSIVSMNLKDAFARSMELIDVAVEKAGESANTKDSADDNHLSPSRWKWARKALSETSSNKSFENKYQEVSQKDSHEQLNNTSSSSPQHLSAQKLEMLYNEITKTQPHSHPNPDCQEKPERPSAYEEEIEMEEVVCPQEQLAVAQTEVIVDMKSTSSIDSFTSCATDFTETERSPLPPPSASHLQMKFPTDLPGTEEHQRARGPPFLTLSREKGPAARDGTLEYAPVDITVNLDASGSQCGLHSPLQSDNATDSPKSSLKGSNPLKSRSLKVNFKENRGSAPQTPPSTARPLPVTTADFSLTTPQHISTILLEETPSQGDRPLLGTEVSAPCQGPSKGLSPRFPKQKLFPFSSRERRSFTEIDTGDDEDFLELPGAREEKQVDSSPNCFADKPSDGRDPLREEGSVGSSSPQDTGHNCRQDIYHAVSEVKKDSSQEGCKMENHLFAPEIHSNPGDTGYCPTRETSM
# [1] = biological target: T2, Kv2.1 channel in pancreatic β-cells (Homo sapiens, UniProt Q14721); conditions: cited from earlier work
# T2 construct: host or cells: pancreatic β-cells (endogenous channel)
# T2 sequence (Q14721 1-858): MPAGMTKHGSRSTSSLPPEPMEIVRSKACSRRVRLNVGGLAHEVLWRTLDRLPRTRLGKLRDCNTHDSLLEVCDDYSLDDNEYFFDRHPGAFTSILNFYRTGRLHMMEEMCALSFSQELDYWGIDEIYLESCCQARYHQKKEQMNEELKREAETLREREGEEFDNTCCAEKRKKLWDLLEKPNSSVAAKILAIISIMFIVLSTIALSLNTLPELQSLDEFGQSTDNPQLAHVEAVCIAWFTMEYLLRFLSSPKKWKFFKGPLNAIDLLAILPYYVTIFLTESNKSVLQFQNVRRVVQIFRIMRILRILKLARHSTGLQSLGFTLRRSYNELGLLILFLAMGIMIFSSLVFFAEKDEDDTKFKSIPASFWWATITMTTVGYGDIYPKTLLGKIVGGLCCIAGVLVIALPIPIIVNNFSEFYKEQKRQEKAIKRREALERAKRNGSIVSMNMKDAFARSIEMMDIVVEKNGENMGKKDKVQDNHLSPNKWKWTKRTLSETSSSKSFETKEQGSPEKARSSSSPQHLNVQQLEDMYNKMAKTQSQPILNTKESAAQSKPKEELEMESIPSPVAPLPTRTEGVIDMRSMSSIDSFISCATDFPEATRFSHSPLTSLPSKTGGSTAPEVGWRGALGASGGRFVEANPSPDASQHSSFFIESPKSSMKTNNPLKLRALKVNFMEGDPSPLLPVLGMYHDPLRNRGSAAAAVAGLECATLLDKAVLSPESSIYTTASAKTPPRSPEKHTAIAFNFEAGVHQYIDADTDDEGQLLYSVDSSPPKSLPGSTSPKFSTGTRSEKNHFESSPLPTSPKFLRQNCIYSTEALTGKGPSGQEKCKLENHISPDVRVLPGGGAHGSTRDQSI
# Chain of Shaker (P08510 with tags, fused parts or gaps DUP563-563/Q583H/L584V): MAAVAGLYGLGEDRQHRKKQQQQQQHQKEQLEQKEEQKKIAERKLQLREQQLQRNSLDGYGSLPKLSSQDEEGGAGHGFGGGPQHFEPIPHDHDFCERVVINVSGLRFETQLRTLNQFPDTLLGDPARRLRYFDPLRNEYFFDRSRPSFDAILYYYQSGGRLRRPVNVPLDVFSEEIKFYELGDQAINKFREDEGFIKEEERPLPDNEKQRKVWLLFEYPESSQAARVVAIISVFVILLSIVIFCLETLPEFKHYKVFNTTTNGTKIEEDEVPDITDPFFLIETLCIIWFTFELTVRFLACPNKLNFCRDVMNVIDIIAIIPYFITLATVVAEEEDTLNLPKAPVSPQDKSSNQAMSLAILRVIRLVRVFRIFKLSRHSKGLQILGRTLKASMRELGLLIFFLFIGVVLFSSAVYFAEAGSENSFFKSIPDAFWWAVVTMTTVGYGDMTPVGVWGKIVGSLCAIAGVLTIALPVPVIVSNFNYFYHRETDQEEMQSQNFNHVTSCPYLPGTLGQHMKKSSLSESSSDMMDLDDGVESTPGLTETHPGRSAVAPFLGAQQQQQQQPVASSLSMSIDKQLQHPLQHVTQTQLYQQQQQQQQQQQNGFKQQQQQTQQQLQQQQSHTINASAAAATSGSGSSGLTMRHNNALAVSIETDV
Substance,IC50 (Shaker) [nM],IC50 (Kv2.2) [nM],Inhibits the Kv2.1 channel in pancreatic β-cells [1]
Agitotoxin-2 (GVPINVSCTGSPQCIKPCKDAGMRFGKCMNRKCHCTPK) [AgTx2],0.64,–,–
Guangxitoxin (EGECGGFWWKCGSGKPACCPKYVCSPKWGLCNFPMP) [GxTx-1E],–,2.6,nanomolar range
